The nanobody polyreactivity screen of Harvey et al. (2022)

assay: yeast display, Sf9 membrane polyspecificity reagent, FACS + sequencing; frameworks hold sequencing errors
Procedure, shortened: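 Galactose induction of a Saccharomyces cerevisiae BJ5465 synthetic nanobody display library ran 36–48 hours. The cells were then stained for 1 hour at 4 °C with 10% biotinylated, detergent-solubilized Sf9 membrane reagent, pulled down on streptavidin microbeads and FACS-sorted into low and high (top ~1%) gates on expression and reagent-binding fluorescence. Labels for polyreactivity follow the gate of origin.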

| Sequence | polyreactivity (PSR sort gate) |
| --- | --- |
| QVQLVESGGGLVQAGGSLRLSCAASGSIFYRNVMGWYRPAPGKERELVAVITSDGSTNYADSVKGRFTISRDNAKNTVYLQMNSLKPEVTAVYYCNAHYAFYGPGYPIYWIYEYWGQGTQVTVSS | low polyreactivity |
| QVQLVQSGGGLVQAGGSLRLSCAASGSIFGDYAMGWYRQAPGKEREFVARINVSGTSTFYADSVKGRFTISRDNAKNTVYLQMNSLKPEDTAVYYCAARGLPSNYYYYVHGYIMDYWGQGTQVTVSS | low polyreactivity |
| QVQLVESGGGLVQAGGSLRLSCAASGGTFGVYTMGWYRQAPGKERELVAAISWSGGSTYYADSVKGRFTISRDNAKNTVYLQMNSLKPEDTAVYYCAARLKYGRIRVDHWGQGTQVTVSS | high polyreactivity |
| QVQLVESGGGLVQAGGSLRLSCAASGSTFSKYAMGWYRQAPGKERELVATISSTGSTNYADSVKGRFTISRDNAKNTVYLQMNSLKPEDTAVSYCNAGRRGRPYYKYYYWGQGTQVTVSS | high polyreactivity |
| QDQLEESGGGLVQAGGSLRLSCGASGSIYDTNDMGWYRQAPGKERELVSAISSGGNTNYADSVKGRFTISRDNAKNTVYLQMKSVKPEDTAVYYWAAVWLGVYSVWTYHHYDYWGQGTQVTVSS | low polyreactivity |
| QLQLVESGGGLVQAGGSLRLSCASSGSNFQPYAMGWYRQAPGIERELVAAISRGGTTYYADSVKGRFTISRDNAKTTVYLQMNSLKPEDTAVYYCAADSYKPDGYRLRNDYWGQGTQVIVSS | high polyreactivity |
| QVHLVESGGGLVQAGGSLRLSCAASGFTFSFYAMGWYRQAPWKEIEFVAAITNSGGSTYYADSVKGRFTISRDNSKNSVYLQMNSLKPEDTAVYYCATKRAWPGYFTYYYWGQGTQVTVSS | high polyreactivity |
| QVQHEESGGGLVQAGGSLRLSCAASGRIFPVNAMGWSRKAPGKERELLAAITRNGGSTYYADSVKGRFTISRDNAKNTVYLQMNSLKPEDTAVSYCAVRVVYGPAWAKMYYWGQGTQVTVSS | high polyreactivity |
| QVQHVESGGGLVQAGGSLRLSCAASGSIFLPYAMGWYRQAPGKQRELVAAISDRGSTYYADSVKGRFTISRDNAQNTVYLHMNSVKAEDTAVYYCAKVYLLFVGALQFDYWGQGTQVTVSS | low polyreactivity |
| QVQLVESGRGLVQAGGSLRLSCAASGSTFKRYVIGWYRQAPGKERELVAVINCSGGSTYADSVKGRYTISRDNAKNTVYLQMNSLKPEDTAVYYCAKYKYYRYWGQRTQVTVSS | high polyreactivity |
| QVQLVESGGGLVQAGGSLRLSCAASGRIFHLYAMGWYRQAPGKERELVATINYEGGSTYYADSVKGRFTISRDNAKDTVYLQMNSLKPEDTAVYYCAADGYQDKYYWLETWVGYWGQGTQVTVSS | low polyreactivity |
| QVQLVESGGGLVQAGGSLRLSCAASGFTFTYYAMGWYRHAPGKERELVAAITNSGGTTYYADSVKGRFTISRDNAKNTVYLQMNSLKPEDTAVYYCAAVPYYVLARSFYRYGYWGQGTQVTVSS | low polyreactivity |
| QVQLVESGGGLVQAGGSLRLSCAASGSIFDDYAMGWYRQAAGKERELVAAITWNGGSTYADSVKGRFTISRDYAKNTVYLQMHSLKPEDTAVYYCNRGGAFNTRNEITRYGYWGQGTQVTVSS | low polyreactivity |
| QVQLVETGGGLVQAGGILRLSCAASGRIFVVYAMGWYRQAPGKERELVASNSRGGRTYYADSVKGRFTISRDNEKNTVYLQMNILKTEDTAVYYCAVVVFLKNRDLFDYWGQGTQVTVSS | low polyreactivity |
| QVQLVESGGGLVQAGGSLRLSCAASGSIYTRYPMGWYRQAPGKERELVAAISINGGSTYYADSVKGRFTISRDNAKNTVYLHMNSLKPEDTAVYYCARHYYRWNNFLYLSGYYWGQGSQVTVSS | high polyreactivity |
| QVQLVESGGGLVQAGGSLRLSCASSGSTFNPYAMGWYRQAPGKERELVAAISRGGRTKYADSVKGRFSISRDNAKNTVYCHMNSLKPEDTAVYYCAARQRSRSRYDYWGQVTQVTVSS | high polyreactivity |
| QVQLVESGGGLVQAGGSLRLSCAASGITLSYYAMGWYGPAPGKERELVAAISSNGGRTYYADSVMGRFTISRDNAKNTVYLQMNSLKPEDTAVYYCAARVYDYPRFGYWGQGTQVTVSS | high polyreactivity |
| QVQLVESGGGLVQAGGSLRLSCAASGSTFLRYAMGWYIQAPGKERELVATISTSRGSTHYADSVKGRFTISRYNAKNTVYLQMNSLKPEDSAVYYCATRGGKWYYRTRQPYPYAMDYWGQGTQVTVSS | high polyreactivity |
| QVQLVESGGGLVQAGGSLRLICAASGGTFYAYAMGWYRQAPGKERELVAAITRSGGRTYYADSVKGRFTISRDNAKNTVSLQMNSLKPEDTAVYYCAADPHHYSGLDYWGQGTQVTVSS | low polyreactivity |
| QVQLVESWGGLVQAGGSRRLSCDASGRTFVTNAMGWYRQARGKERELVAAISGTGGSTYYADSVKGRFTISRDNAKNTVFLHMNRLKPEDTAVYSWAADTYIYGLEYDYWGQGTQVTVSS | low polyreactivity |
| QVQLVESGGGLVQAGGSLRLSCAASGRTFSGYAMGWYRPAPGKERELVATISSGGRTNYADSVKGRFTISRDNAKNTVYLQMISLKPEDTAVYYCNVRWWGRGPWSDYWGQGTQVTVSS | high polyreactivity |
| QVQLVESGGGLVQAGGSLRLSCASSGFTFYTNDMGWDRQAPGKERELVAAITWSGGSTYYADSVKGRFTISRDNAKNTVYFQMNSLKPEDTAVYYCAASIGQVTQRRYGTRYYYWGQGTQVTVSS | high polyreactivity |

| Sequence | polyreactivity (PSR sort gate) |
| --- | --- |
| QVQLVESGGGLVQAGGSLRLSCAASGSIIVYYAMGWYRQAPGKERELVAAIRVRGGSTYYADSVKGRFTISRDTAKNTVYLQMNSLKPEDTAVYYCATAGRYGRYRTNAYRSKYDYWGQGTQVTVSS | high polyreactivity |
| QVQLVESGGGLVQAGGSLRLSCAASGFTFKHYAMGWYRQATGKERELVATITRGGSTNYADSVKGRFTISRDNAKNTVYLQMNSLKPEDSAVYYCAAADYVRYPFTRGYIYQGYDYWGQGTQVTVSS | low polyreactivity |
| QVQLVESGGGLVQAGGSLRLSCAASGRTFYYYAMAWYRPAPGKERELVAAISWSGGRTYYADSVKGRFTISRDNAKNTVYLLMNSLIPVDTAVYYCNAEPPRGYTVSSGGEMDYWGQGTQVTVSS | low polyreactivity |
| QVQLVESGGGLVQAGGILRLSCAASGLTFNYYDMGWYRQAPGKERELVAAISRSGTNTSYADSVKGRFTISRDNAKNTVYLQMNSLKPEDTAVYYCNSAGVYLAAGPYTANFNYNYWGQGTQVTVSS | low polyreactivity |
| QVQLVESGGGLVQAGGSLRLSCAASGRTYYGNAMGWYRQAPGKERELVAAITSGGGSTRYADSVKGRFTISRDNAKNTVYLQMNSLKPEDTAVYYCNATLGNFGYRRYSGHTRYYYWGQGTQVTVSS | high polyreactivity |
| QVQLVESGGGLVQAGGSLRLSCAASGRIFHTYGMGWYRQAPGKVRELVAAITWTGGSTYYADSVKGRFTISRDNAKNTVYLQMNSLKPEDTAVYYCNARYVYHSSFAGFDYWGQGTQVTVSS | low polyreactivity |
| QVQLVESGGGLVQAGGSLRLSCAASGSTFFSYAMGWYRQAPGKEREFVAAISWIDDGTYYADSVKGRFTISRDNAKNTVYLQMNSLKPEDTAVYYCAADIGAYRTWDYEYWGQGTQVTVSS | low polyreactivity |
| QVQLVESGGGLVQAGGSLRLSCAASGSNFTNAMGWYRQAPGKERELVASIDANAGDTHYADSVKGRFTISRDNAKNTVYLQLNSLKPEDTAVYYCNADVTERLWTGEDDYWGQGTQVTVSS | low polyreactivity |
| QVQLVESGGGLVQAGGSLRLSCAASGSTFPYYAMGWYRQAPGKERELVAAISRGDSTNYADSVKGRFTISRDNAKNTFYLQMNSLKTEDTAVYYCAARLQYRRTSVKYYYWGQGTQVTVSS | high polyreactivity |
| QVQLVESGGGLVQAGGSLRLSCAASGRIFDIYDMGWYIQAPGKERELVAAITSGGNTYYADSVKWRFTISRDNAKNTVYLQMNSLKPEDTAVYYCNAARETRPRDYYWGQGTQVTVSS | low polyreactivity |
| QVQLVESGGGLVQAGGSLRLSCAASGSIFASYVMGWYRQAPGKERELVAAITSRGTSTYYADSVKGRFTISRDNAKNTVYLHMNSLNPEDTAVYYCAARLYGSAPQHEYWGQGTQVTVSS | low polyreactivity |
| QVQLVESGVGLVQAGVSLRISCAASGSIFDTYAMGWYRQAPGKERELVAAIRWTGGSTYYADSVKGRFTISRDNAKNTVYLQMNSLKREDTAVYYCATPSYGRPGFGYWGQGTQVTVSS | low polyreactivity |
| QVQLVESGGGLVQAGGSLRLSCAASGRIFYYYAMGWYRQAPGKERELVATISRAGITNYADSVKGRFTISRDNAKNTVYLQMNSLKPEDTAVYYCADTFYPWRYNYEYWGQGTQVTVSS | high polyreactivity |
| QVQLVESGGGLVQAGASLRLSCAASGSISKSYAMGWYRQAPGKERELVAAMSWRGGSTYADSVKGRFTISRDNAKNTVYLLMNCLKPEDSAVYYCAATNYGTFWGGQSERYDYWGQGTQVTVSS | low polyreactivity |
| QVQHVQSGGGLVQAGGRHRLSCAASGSTIRYYAMGWYRQAPGTERELVAAISGSGGRTYYADSVKGRFTISRDNAKNTGYLQMNSLKPEDTAVYYCYTRGRRTDNDYWGQGTQLTVSS | high polyreactivity |
| QVQLVESGGGLVLAGGRLRLSCAASGFTLDYYTMGWYRLAPGKEREFVAAITRRTGNTYYADSVKGRFTISRDNEKITVYLQMNSLKPEDPAVYYCAATFWPWYSGITYYYWGQGTQVTVSS | high polyreactivity |
| QVQLVESGGGLVQAGGSLRLSCAASGRIFHTYGMGWYRQAPGKERELVAAITWTGGSTYYADSVKGRFTISRDNAKNTVYLQMNSLKPEDTAVYYCAADYPRDIIGSMDYWGQGTQVTVSS | low polyreactivity |
| QVQLVESGGGLVQAGGSLRLSCAASGNIFSDNAMGWYRQAPGKESELVAAITSGGSTNYADSVKGRFTISRDNAKNTVYLQMNSLKPEDTAVYYCAADISYRHFLFDYWGQGTQVTVSS | low polyreactivity |
| QVQLVESGGGLFQAGGSLRLSCAASGSTFAFYDMGWYRQATGIERELVAIIDWSGGRTYYADSVKGRFTISRDNAKHTVYLQMNSLKPQDTAVYYCAVDYEYVGGDYWGQGTQVTVSS | low polyreactivity |
| QVQLVQSGGGLVQAGGSLSLSCAGSGSTFHNYAMGWYRQAPGQEREMVAGISVRGGGTYYAYSVKGRFTISRDNANNTVYVQMNSLKPEETAVYYCAASRSRYSVNWYNYWGQGTQVTVSS | high polyreactivity |
| QVQHVESGGGLLQAGGSLRLSCAASGMGWYRQAPGKERELVAVIRWSSGSTYYADSVKGRFTISRDNAKNTVYLQMNSLKPDDTAVYYCNARDQYYGDPSSQPDTRSRSDYWGQGTQVTVSS | low polyreactivity |
